Data taken from US20250313621A1 (NXERA PHARMA UK, published 2025).

Assays:
[1] = biological target: T1, Wildtype human PAR2 expressed on cells (human, UniProt P55085 37-397); test: cell-based or functional assay
T1 sequence: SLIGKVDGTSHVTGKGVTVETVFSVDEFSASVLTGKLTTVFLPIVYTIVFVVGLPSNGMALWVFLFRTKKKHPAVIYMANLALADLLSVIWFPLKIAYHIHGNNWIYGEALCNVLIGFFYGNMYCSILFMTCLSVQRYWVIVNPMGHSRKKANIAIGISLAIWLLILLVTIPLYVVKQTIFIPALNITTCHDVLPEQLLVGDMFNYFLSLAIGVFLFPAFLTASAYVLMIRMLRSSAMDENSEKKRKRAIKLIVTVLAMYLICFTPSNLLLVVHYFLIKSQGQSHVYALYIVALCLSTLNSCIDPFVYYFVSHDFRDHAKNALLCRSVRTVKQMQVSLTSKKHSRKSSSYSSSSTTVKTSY

[2] = biological target: T1, Wildtype human PAR2 expressed on cells; test: cell-based or functional assay; remark: listed apart in the source
[3] = biological target: T1, Wildtype human PAR2 expressed on cells; test: cell-based or functional assay; remark: listed apart in the source
[4] = biological target: T2, Mouse PAR2 on Flp-In CHO cells (mouse, UniProt P55086 39-399); test: cell binding, flow cytometry/IntelliCyt
T2 construct: whole, on cells
T2 sequence (looked up): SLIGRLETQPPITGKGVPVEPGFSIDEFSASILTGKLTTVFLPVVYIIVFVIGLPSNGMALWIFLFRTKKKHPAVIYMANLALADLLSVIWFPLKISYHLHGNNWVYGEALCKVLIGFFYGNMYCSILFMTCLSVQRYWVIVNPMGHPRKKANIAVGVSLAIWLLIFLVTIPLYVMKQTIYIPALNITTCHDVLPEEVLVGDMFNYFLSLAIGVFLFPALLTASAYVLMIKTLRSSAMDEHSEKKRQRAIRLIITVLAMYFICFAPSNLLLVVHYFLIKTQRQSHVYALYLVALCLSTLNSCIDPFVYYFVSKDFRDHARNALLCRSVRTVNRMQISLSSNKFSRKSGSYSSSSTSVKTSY

[5] = biological target: T3, Human PAR2 StaR incorporated into nanodiscs (construct not stated) (human, UniProt P55085 37-377, limits assumed); test: SPR Biacore; human PAR2 StaR incorporated into nanodiscs
T3 construct: also called nanodisc-embedded StaR
T3 sequence: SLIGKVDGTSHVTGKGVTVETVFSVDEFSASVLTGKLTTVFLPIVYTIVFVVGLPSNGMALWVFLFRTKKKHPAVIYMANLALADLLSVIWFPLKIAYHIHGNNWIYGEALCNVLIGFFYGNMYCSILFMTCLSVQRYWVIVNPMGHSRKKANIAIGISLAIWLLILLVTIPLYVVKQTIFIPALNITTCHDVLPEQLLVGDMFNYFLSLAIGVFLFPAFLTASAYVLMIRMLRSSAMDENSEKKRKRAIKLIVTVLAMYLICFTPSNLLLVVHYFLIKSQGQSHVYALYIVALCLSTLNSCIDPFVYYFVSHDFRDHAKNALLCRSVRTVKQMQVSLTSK

[6] = biological target: T4, PAR2-3: P157: 1-377, glycosylated, pBacMamHisStrepII, full length (human, UniProt P55085 26-377); test: SPR Biacore; IgG captured on anti-human IgG, 100 nM PAR2 analyte; 1:1 model
T4 construct: detergent-solubilised analyte in SPR, or on infected cells in flow cytometry; also called FL-N PAR2 StaR; FL-N StaR; not shown: C-terminal StrepII and deca-histidine tags
T4 sequence: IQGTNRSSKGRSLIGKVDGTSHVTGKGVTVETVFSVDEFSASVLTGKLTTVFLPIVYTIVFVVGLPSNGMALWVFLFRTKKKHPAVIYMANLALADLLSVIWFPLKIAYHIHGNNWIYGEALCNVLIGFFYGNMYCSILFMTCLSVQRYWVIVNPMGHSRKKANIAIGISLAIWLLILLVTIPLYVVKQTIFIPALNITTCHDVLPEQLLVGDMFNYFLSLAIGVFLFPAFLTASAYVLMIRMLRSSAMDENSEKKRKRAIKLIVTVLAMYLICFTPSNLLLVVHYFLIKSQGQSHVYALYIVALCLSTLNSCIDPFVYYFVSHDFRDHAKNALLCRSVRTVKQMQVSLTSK
Experimental: The antibodies were captured on anti-human IgG chip surface followed by injection of 100 nM PAR2. The data were fitted to 1:1 interaction model except for clone ‘Y021160’ in which case heterogeneous ligand model was used and component with slow dissociation was used for comparison.
For three purified IgG1f_AEASS clones Y021171, Y022054 and Y022063 affinities to human PAR2-3 variant (P157: 1-377, glycosylated, pBacMamHisStrepII, full length) were determined by SPR immobilizing the IgG and probing with detergent (LMNG/CHS) solubilized FL-N PAR2 StaR. Affinities were 22 nM and 20 nM for Y022063 and Y021171, respectively.

[7] = biological target: T4, PAR2-3: P157: 1-377, glycosylated, …; test: SPR Biacore T200; IgG captured on anti-human IgG, 250 nM PAR2 analyte; 1:1 model
Experimental: The assay of PAR2 interaction with anti-PAR2 antibodies was carried out using a Biacore T200 instrument (GE Healthcare). Anti-human IgG antibody (Human Antibody Capture Kit, GE Healthcare) was immobilised by amine coupling on a sensor chip CM3 (GE Healthcare) to a surface density of 3500 to 4500 resonance units (RU). Immobilisation was carried out at 25° C. in HBS-EP+ buffer (GE Healthcare). The buffer was then changed to 50 mM HEPES, pH 7.5, 150 mM NaCl, 0.02% LMNG, 0.002% CHS. Each cycle of the PAR2-antibody interaction assay consisted of antibody capture (100 nM antibody injected for 2 min at a flow rate of 5 μL/min), PAR2 injection (blank or 250 nM, with contact and dissociation times of 2 and 3 minutes, respectively, at a flow rate of 20 μl/minute), and chip surface regeneration (30 seconds at 20 μl/minute) using the regeneration solution from Human Antibody Capture Kit (GE Healthcare). […] Measurements between each experimental data set were within the acceptable margins for this methodology.
The antibodies were captured on anti-human IgG chip surface followed by injection of 250 nM PAR2. The data were fitted to 1:1 interaction model.

[8] = biological target: T1, Wildtype human PAR2 expressed on cells; test: cell-based or functional assay; remark: listed apart in the source
[9] = biological target: Cynomolgus PAR2 on BacMam-infected HEK293 cells (cynomolgus); test: cell-based or functional assay
Rhesus PAR2 on cells = Rhesus PAR2 on cells (rhesus (Macaca mulatta)); test: cell-based or functional assay
Wildtype human PAR 1 = biological target: T5, Wildtype human PAR 1 (human, UniProt P25116 42-425); test: IntelliCyt flow cytometry, titration of IgG1f_AEASS, S/BG
T5 construct: BacMam-infected HEK293f cells in the IP-One assay
T5 sequence: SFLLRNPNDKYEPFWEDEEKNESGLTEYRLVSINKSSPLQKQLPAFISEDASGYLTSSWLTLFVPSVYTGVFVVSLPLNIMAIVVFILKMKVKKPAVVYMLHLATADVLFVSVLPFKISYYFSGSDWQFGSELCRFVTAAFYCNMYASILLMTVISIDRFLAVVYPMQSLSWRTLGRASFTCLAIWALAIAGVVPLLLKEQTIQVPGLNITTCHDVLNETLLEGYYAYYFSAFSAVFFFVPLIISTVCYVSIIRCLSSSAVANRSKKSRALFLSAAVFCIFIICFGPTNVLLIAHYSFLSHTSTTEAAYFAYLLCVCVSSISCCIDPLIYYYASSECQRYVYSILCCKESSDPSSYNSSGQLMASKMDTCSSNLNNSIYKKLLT
Experimental: (§1) To evaluate species cross-reactivity and/or unwanted binding to counter-targets simultaneously, screening in 384-well plate format was performed using the HTFC/iQue screening platform from IntelliCyt. The HTFC/iQue Screening System was also used for evaluation of binding to multiple target cell lines or evaluation of unwanted/non-specific binding in parallel, in other words multiplexing. Different cell populations could be distinguished by pre-labelling with distinct amounts of fluorescent dyes, such as Calcein or Cell-Tracker Green, establishing a unique signature of fluorescence intensity for each cell population, thereby producing a fluorescence coding system. The color-coded cell lines were then physically combined and mixed together with antibodies to be tested. Individual cell-lines could be identified via the fluorescence of the respective cell-line that had been pre-labelled. Crude bacterial cell lysates were combined with cells and incubated for 1 hour at room temperature in the dark, shaking gently. Fluorescence measurement was performed with the IntelliCyt HTFC/iQue device. In between incubation steps, no washing was required. Raw data were evaluated with the help of the ‘ForeCyt’ software. After data acquisition, the cell lines from each sample could be identified according to their fluorescence signature and individually evaluated for antibody binding. […]

[10] = biological target: T2, Mouse PAR2 on Flp-In CHO cells; test: FACS titration on CHO mouse Par2 cells, RLU [continued) C]
Text: Binding events to cell surface expressed antigen were identified by flow cytometry using either crude E. coli lysates from the panning output or purified antibodies. High throughput primary screens of panning outputs from differential whole cell pannings (DWCP) were mainly performed on human wild type PAR2-expressing Flp-In CHO cells (Flp-In CHO_huPAR2), GNTI BacMam wild type PAR2 cells and GNTI BacMam truncated PAR2 StaR versus parental Flp-In CHO cells (PAR2 negative) or non-infected HEK293GNTI-cells. Candidates showing an elevated background binding to parental Flp-In CHO cells were ascribed as either non-specific or off-target binders. All steps were performed in FACS buffer including FCS and sodium azide to prevent potential receptor internalization. Cell suspensions were transferred into microtiter plates and antibody samples were added followed by subsequent incubation of plates at 4° C. Sample volume and cell-number were adjusted to the plate type used. Following incubation, cells were spun down and washed with FACS buffer. Fluorophore-conjugated secondary reagents were used for detection of bound antibodies. Plates were measured using the BD FACS Array or IntelliCyt HTFC/iQue System and data was analysed using FlowJo, ForeCyt or proprietary software tools (FIG. 3).

[11] = biological target: T6, V5His-huPAR2 on Flp-In CHO cells (human, UniProt P55085 37-397); test: IntelliCyt flow cytometry, titration of IgG1f_AEASS on Flp-In CHO_V5His_huPAR2 cells, S/BG
T6 sequence: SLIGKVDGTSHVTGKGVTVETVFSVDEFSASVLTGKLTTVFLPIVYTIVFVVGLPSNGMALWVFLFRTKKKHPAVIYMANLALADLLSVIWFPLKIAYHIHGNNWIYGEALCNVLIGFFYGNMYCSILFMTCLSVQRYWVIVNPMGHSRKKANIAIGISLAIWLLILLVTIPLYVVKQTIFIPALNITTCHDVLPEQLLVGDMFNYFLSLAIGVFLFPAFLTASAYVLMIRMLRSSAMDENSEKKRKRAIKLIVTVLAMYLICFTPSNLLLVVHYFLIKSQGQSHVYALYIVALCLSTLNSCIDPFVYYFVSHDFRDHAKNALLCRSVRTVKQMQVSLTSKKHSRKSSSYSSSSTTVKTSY
Experimental: as §1

[12] = biological target: T1, Wildtype human PAR2 expressed on cells; test: IntelliCyt flow cytometry, titration of IgG1f_AEASS on HEK Flp-In TRex 293_huPAR2 expression-induced cells, S/BG
Experimental: as §1

[13] = biological target: T1, Wildtype human PAR2 expressed on cells; test: flow cytometry on HEK293F-humanPAR2 (3.0E+06 cells/mL), S/BG [continued]

B1: Y021171 (antibody, V domains shown)
VH: EVQLVESGGGLVKPGGSLRLSCAASGFTFSSYSINWVRQAPGKGLEWVSSISSSSSYTYYAESVKGRFTISRDNAKNSLYLQMNSLRAEDTAVYYCARAASGFAIFDYWGQGTLVTVSS
VL: DIQMTQSPSSVSASVGDRVTITCRASQGISSWLAWYQQKPGKAPKLLIYAASSLQSGVPSRFSGSGSGTDFTLTISSLQPEDFATYYCQQTHYVPLTFGQGTKVEIKR
With B1 as the binder, how does the “% Max Inhibition AP, IP-One” value [1] read?
The value was 32%.

And the “% Max Inhibition, AP challenge, IP-One” value [2]?
The value was 163%.

And the “% Max Inhibition, Bovine Trypsin challenge, IP-One” value [3]?
Its value is 19%.

Does B1 bind [4]?
Result: no binding

What about the Kd [5] of the same binder?
The Kd was 31 nM.

And the koff [5]?
Its koff is 0.037 s⁻¹.

And the kon [5]?
Its kon is 1.2e+06 M⁻¹ s⁻¹.

What about the Kd [6] of the same binder?
Its Kd is 70 nM.

What about the koff [6] of the same binder?
The koff was 0.029 s⁻¹.

What about the kon [6] of the same binder?
The kon was 410000 M⁻¹ s⁻¹.

And the Kd [7]?
The Kd was 20 nM.

What about the koff [7] of the same binder?
The koff was 0.011 s⁻¹.

What about the kon [7] of the same binder?
Its kon is 530000 M⁻¹ s⁻¹.

B2: Y022065 (antibody, human IgG1, lambda, V domains shown)
VH: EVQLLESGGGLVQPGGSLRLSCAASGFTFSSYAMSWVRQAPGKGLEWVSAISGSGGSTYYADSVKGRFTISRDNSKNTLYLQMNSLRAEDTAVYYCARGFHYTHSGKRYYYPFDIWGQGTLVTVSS
VL: QSALTQPASVSGSPGQSITISCTGTSSDVGSYNLVSWYQQHPGKAPKLMIYEGSKRPSGVSNRFSGSKSGNTASLTISGLQAEDEADYYCSQYATFIAFAVFGGGTKLTVLG
notes: also called clone Y022065; parental clone Y022065
Which results are given for B2?
% Max Inhibition AP, IP-One [1]: 43%; IC50 (nM), SLIGKV agonist challenge, Human [8]: 264 nM; IC50 (nM), SLIGKV agonist challenge, Cyno [9]: > 2000 nM; IC50 (nM), SLIGKV agonist challenge, Rhesus (Rhesus PAR2 on cells): > 2000 nM; binding result (Wildtype human PAR 1): no binding (tested: 200 nM); binding result [10]: no binding; Kd [6]: 5.3 nM; koff [6]: 0.00016 s⁻¹; kon [6]: 30000 M⁻¹ s⁻¹; EC50 (read off the curve) [11]: ~4 nM; EC50 (read off the curve) [12]: ~7 nM

B3: Fab Y022877 (Fab, V domains shown)
VH: EVQLLESGGGLVQPGGSLRLSCAASGFTFSRYAMTWVRQAPGKGLEWVSTISGLGQEAYYAGSVKGRFTISRDNSKNTLYLQMNSLRAEDTAVYYCARGFHYTHSGKRYYYPFDIWGQGTLVTVSS
VL: QSALTQPASVSGSPGQSITISCTGTSSDVGSYNLVSWYQQHPGKAPKLMIYEGSKRPSGVSNRFSGSKSGNTASLTISGLQAEDEADYYCSQYATFIAFAVFGGGTKLTVLG
With B3 as the binder, how does the “EC50 (read off the curve)” value [13] read?
The value was about 10 nM.
